Changes are numbered by the printed parent chain. Square brackets hold non-standard residues; d marks the D form. Ends that are not written are not given here. * marks the point of attachment. Palmitoyl = CCCCCCCCCCCCCCCC(=O)*; Hyp = O=C(O)[C@@H]1C[C@@H](O)CN1
B1: (Ala^3)GIP (peptide)
peptide: YAAGTFISDYSIAMDKIHQQDFVNWLLAQKGKKNDWKHNITQ
B2: (Phe^3)GIP (peptide)
peptide: B1 peptide with A3F
B3: (Trp^3)GIP (peptide)
peptide: B1 peptide with A3W
B4: (Tyr^3)GIP (peptide)
peptide: B1 peptide with A3Y
B5: (Pro^3)GIP (peptide)
peptide: B1 peptide with A3P
B6: (Lys^3)GIP (peptide)
peptide: B1 peptide with A3K
B7: (Pro^3)LysPAL^16GIP (peptide)
peptide: YAPGTFISDYSIAMDK(Palmitoyl)IHQQDFVNWLLAQKGKKNDWKHNITQ
B8: (Hyp^3)GIP (peptide)
peptide: YA[Hyp]GTFISDYSIAMDKIHQQDFVNWLLAQKGKKNDWKHNITQ
B9: (Hyp^3)LysPAL^16GIP (peptide)
peptide: YA[Hyp]GTFISDYSIAMDK(Palmitoyl)IHQQDFVNWLLAQKGKKNDWKHNITQ

Legend:
[1] = target: DPP-IV (Homo sapiens, UniProt P27487); assay: Degradation of GIP and Glu3-substituted GIP analogs by DPP-IV (HPLC); assay type: in vitro ADME; conditions: for Intact Peptide Remaining (%) 0 hrs. / remaining at 2 h, 2 μm / remaining at 4 h, 2 μm / remaining at 8 h, 2 μm: incubation with DPP-IV (5 mU), 37°C; for Intact Peptide Remaining (%) 0 hrs.: pH 7.8, 0 hrs; for half-life: incubation with DPP-IV, unit not given (time points in hrs), read-out: Estimated Half-Life; for remaining at 2 h, 2 μm / remaining at 4 h, 2 μm / remaining at 8 h, 2 μm: isolated DPP-IV enzyme (5 mU); for remaining at 2 h, 2 μm: pH 7.8, 2 hrs, read-out: Intact Peptide Remaining (%) 2 hrs.; for remaining at 4 h, 2 μm: pH 7.8, 4 hrs, read-out: Intact Peptide Remaining (%) 4 hrs.; for remaining at 8 h, 2 μm: pH 7.8, 8 hrs, read-out: Intact Peptide Remaining (%) 8 hrs.
[2] = target: T1, human GIP-R (Homo sapiens, UniProt P48546); assay: Cyclic AMP production in GIP-R transfected CHL cells; assay type: cell-based
T1 construct: expressed in transfected cells; host or cells: Chinese Hamster Lung (CHL) fibroblast cells, stably transfected
T1 sequence (P48546 22-466): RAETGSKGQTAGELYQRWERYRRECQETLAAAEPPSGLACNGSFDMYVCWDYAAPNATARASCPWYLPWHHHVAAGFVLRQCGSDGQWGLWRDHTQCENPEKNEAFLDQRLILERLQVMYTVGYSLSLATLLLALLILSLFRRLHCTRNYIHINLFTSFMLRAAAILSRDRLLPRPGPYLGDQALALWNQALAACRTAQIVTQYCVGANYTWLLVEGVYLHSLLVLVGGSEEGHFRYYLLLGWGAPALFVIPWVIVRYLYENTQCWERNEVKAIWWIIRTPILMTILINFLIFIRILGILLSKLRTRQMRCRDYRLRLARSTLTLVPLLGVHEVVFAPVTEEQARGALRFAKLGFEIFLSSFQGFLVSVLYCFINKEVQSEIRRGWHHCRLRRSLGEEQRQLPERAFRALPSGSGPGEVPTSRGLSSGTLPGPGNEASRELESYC
Method: Tissue Culture. […] (v/v) fetal bovine serum, 1% (v/v) antibiotics (100 U/ml penicillin, 0.1 mg/ml streptomycin) (all from Gibco, Paisley, Strathclyde, Scotland). BRIN-BD11 cells were cultured in RPMI-1640 tissue culture medium containing 10% (v/v) fetal bovine serum, 1% (v/v) antibiotics (100 U/ml penicillin, 0.1 mg/ml streptomycin) and 11.1 mm glucose. The origin and secretory characteristics of these cells have been described in detail previously (McClenaghan, N. H. et al., 1996, Diabetes 45:1132-1140). The cells were maintained in sterile tissue culture flasks (Corning Glass Works, Sunderland, UK) at 37° C. in an atmosphere of 5% CO2 and 95% air using a LEEC incubator (Laboratory Technical Engineering, Nottingham, UK).
Methods. […] The culture medium was removed and cells subsequently washed twice with 2 ml ice-cold HBS buffer (130 mm NaCl, 20 mm HEPES, 0.9 mm NaHPO4, 0.8 mm MgSO4, 5.4 mm KCl, 1.8 mm CaCl2, 5.6 mm glucose and 25 μm phenol red) (pH 7.4). […] The medium was subsequently removed and the cells lysed with […] of lysing solution (5% TCA, 3% SDS, 92% H2O, also containing 0.1 mm unlabelled cAMP and 0.1 mm unlabelled ATP) (Sigma, Poole, Dorset, UK). The plates were then left on a shaker at room temperature for 30 minutes and tritiated cAMP formation determined by column chromatography using Dowex and alumina ion exchange columns (BioRad Life Science Research, Alpha Analytical, Larne, UK) as previously described (Gault, V. A. et al 2002, Biochem. J. 367:913-920).

[3] = target: T2, human GIP receptor (GIP-R) (human, UniProt P48546 22-466); assay: cell-based or functional assay
T2 sequence (looked up): T1 sequence (P48546 22-466)

DPP-IV, sequence (P27487 whole entry, species assumed): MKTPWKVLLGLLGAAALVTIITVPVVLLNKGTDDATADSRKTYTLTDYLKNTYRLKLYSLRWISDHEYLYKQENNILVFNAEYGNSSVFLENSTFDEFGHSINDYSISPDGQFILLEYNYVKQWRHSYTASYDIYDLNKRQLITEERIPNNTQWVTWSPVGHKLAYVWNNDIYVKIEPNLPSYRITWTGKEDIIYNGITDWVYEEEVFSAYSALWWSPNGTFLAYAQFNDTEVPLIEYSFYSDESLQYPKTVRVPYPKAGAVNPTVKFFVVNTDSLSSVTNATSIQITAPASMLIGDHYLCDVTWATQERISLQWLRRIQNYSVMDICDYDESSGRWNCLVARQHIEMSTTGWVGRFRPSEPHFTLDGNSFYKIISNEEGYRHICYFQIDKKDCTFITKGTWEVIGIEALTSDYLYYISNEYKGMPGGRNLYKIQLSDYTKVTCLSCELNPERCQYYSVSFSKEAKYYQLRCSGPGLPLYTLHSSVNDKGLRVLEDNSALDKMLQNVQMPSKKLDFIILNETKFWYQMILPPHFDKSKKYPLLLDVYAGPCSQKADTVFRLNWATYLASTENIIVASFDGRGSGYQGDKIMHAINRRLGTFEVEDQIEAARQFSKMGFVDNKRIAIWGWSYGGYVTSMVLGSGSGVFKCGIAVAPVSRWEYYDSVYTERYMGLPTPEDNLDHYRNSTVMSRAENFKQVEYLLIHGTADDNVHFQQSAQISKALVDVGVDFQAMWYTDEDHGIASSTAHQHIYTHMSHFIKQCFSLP

Molecule	Cyclic AMP EC50 (nm) [3] [nm]	cAMP response in presence of 10^-7 M GIP (% GIP max) [3] [% GIP max]	also measured
YA[Hyp]GTFISDYSIAMDKIHQQDFVNWLLAQKGKKNDWKHNITQ [(Hyp^3)GIP]	–	–	Intact Peptide Remaining (%) 0 hrs. [1]: 100%; half-life [1]: > 8 h; remaining at 2 h, 2 μm [1]: 100%; remaining at 4 h, 2 μm [1]: 100%; remaining at 8 h, 2 μm [1]: 100%; resistance to DPP-IV degradation ([1]; words, up to 8 hours incubation): completely resistant; EC50 [2]: 1340 nM; remaining activity at 0.1 µM ([2]; CHL, read-out: cAMP response in presence of 10^-7 M GIP (% GIP max)): 56 ± 4%
YA[Hyp]GTFISDYSIAMDK(Palmitoyl)IHQQDFVNWLLAQKGKKNDWKHNITQ [(Hyp^3)LysPAL^16GIP]	–	–	Intact Peptide Remaining (%) 0 hrs. [1]: 100%; half-life [1]: > 8 h; remaining at 2 h, 2 μm [1]: 100%; remaining at 4 h, 2 μm [1]: 100%; remaining at 8 h, 2 μm [1]: 100%
native GIP (glucose-dependent insulinotropic polypeptide; gastric inhibitory polypeptide), GIP(1-42) (from UniProt P09681 52-93) (ligand)	0.5	100	–
B1	2.3	88	–
B2	1	62	–
B3	3	78	–
B4	1.5	76	–
B5	207	66	–
B6	2.6	63.5	–
B7	870	63	–
B8	1340	56	–
B9	138	48	–
